From article PMC10142695, “Expression and Characterization of 3,6-Dihydroxy-picolinic Acid Decarboxylase PicC of Bordetella bronchiseptica RB50” (Microorganisms, 2023)

Substrate: O=C(O)c1nc(O)ccc1O
Assay: purified protein
Assay type: biochemical, Bordetella bronchiseptica
Conditions: 50 mM PBS pH 7.4 (unit definition says pH 7.0), 25 °C, 0 to 300 μM 3,6DHPA, no added metal stated

B1: PicCRB50 (Bordetella bronchiseptica RB50) (protein)
chain: MTKVRKIAFEEHFTAVGFGDYSKAFVQHLDPGFAAELGARLTDFGAGRLAEMDAAGIDYAILSQTGPGVQGEPDAAVALRRARENNDFLAERIARHPDRFGGFAALPMHDPKTAAAELTRAVRELGFKGSLVNGHTNGVYYDDPAYDAFWEQMQELDVPLYLHPFDAYVLPHAYKGHPELAGATWGWGVETGTHALRLLFGGVFDRFPKLKIILGHMGEGLPFQRWRFDSRFAAYPYGVKLQRAPSEYIGSNILITTSGVCSHPTLVGAIAEMGAEAVMFSIDYPYESTALAVEFIESAPLDAATRELVCYGNAARLFKL
Work on B1 yielded a Km of 20.41 ± 2.60 µM and a kcat of 7.61 ± 0.53 S^−1.
